Data reported in the nanobody polyreactivity screen of Harvey et al. (2022).

Assay: yeast display, Sf9 membrane polyspecificity reagent, FACS + sequencing; frameworks hold sequencing errors
How it was run: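 Synthetic nanobody libraries on Saccharomyces cerevisiae BJ5465 were galactose-induced for 36–48 hours, stained 1 hour at 4 °C with 10% biotinylated, detergent-solubilized Sf9 membrane reagent and enriched on streptavidin microbeads. FACS then separated cells into low and high (top ~1%) gates by anti-HA (expression) and streptavidin (reagent binding) fluorescence. Genes were colony-PCR amplified, MiSeq 2 × 250 sequenced and CDR-length filtered. A clone's polyreactivity label is that of its gate of origin.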

QVQLVESGGGVVQAGGSLRLSCAASGRTFLVTALGWYRQAPGKERELVAVITRGGSTNYADSVKGRFTISRDNAKNTVYLQMNSLKPEDTAVYYCAKQFSPYRSYGPVVRYDYWGQGTQVTVSS
polyreactivity (PSR sort gate): low polyreactivity

QVQLVESGGGVVQAGGSLRLSCAASGRTIYFYAMGWYRQAPGKERELVAAITGSGGRTYYADSVKGRFTISRDHAKNTVYLQMNSLKTEDTAVYYCAAVPPPLARLYVAAKRFDSWGQGTQVTVSS
polyreactivity (PSR sort gate): low polyreactivity

QVQLVESGGGVVQAGGSLRLSCAASGSIFGVYAMGWYRQAPGQERELVAAIDSGSSTDYADSVKGRFTISRDNAKNTVYLQMNSLKPEDTAGYYCYPLDLAPVDYWGQGTQVTVSS
polyreactivity (PSR sort gate): low polyreactivity

QVQLVESGGGVVQAGGSLRLSCAASGSIFPYYVMGWYRQAPGKERELVAVISQSGGSTYYADSVKGRFTISRDNAKNTVYLQMNSLKPEDTAVYYCAAESAYDAYDYWGQGTQVTVSS
polyreactivity (PSR sort gate): high polyreactivity

QVQLVESGGGVVQAGGSLRLSCAASGSTFSYNAMGWYRQAPGKERELVAAITSTGRTYYADSVKGRFTISRDNAKNTVYLQMNSLKPEDTAVYYCNKRARSEQYSYNYGYYYWGQGTQVTVSS
polyreactivity (PSR sort gate): high polyreactivity

QVQLVESGGGVVQAGGSLRLSCAASGSTFTVNGMGWYRQAPGKERELVAAIVGGDGSTYYADSVKGRFTISRDNAMNTVYLQMNSLKPEDTAVYYCAADPPGFTQYGYWGQGTQVTVSS
polyreactivity (PSR sort gate): low polyreactivity

QVQLVESGGGVVQAGGSLRLSCAASGSTFYSYAMGWYRPAPGKERELVAAISWDGGRTYYADSVKGRFTISRDNAQNTVYLQMNSMKPEDTAVYYCAARKGELWFPQGGYNYSGQGTQVTVSS
polyreactivity (PSR sort gate): low polyreactivity

QVQLVESGGGVVQAGGSLRLSCAASGSTFYYNAMGWNRQAPGKERELVARISRSGGSTYADSVKGRFTISRDNAKNTVYLQMNSLKPEDTAVYYCNADAYGTPEFTSYAVRYDYWGQGTQVTVSS
polyreactivity (PSR sort gate): low polyreactivity

QVQLVESGGGVVQAGGSLRLSCSASGRTLDKNVMGWYRQAPGKERELVAAINTGGRTYYADSVKGRFTISRDNAKNTVYLQMNSLKPEDTAVYYCAKEGHVNPRPTVGGDYWGQGTQVTVSS
polyreactivity (PSR sort gate): low polyreactivity

QVQLVESGGGVVQAGGSLRLSFAASGSTFPGNAMGWYRQAPGKERELVASISGGGDSTYYADSVKGRFTISRDNAKNTVYLQMNSLKPEDTADYYCAARSTRGHYTAYDYWGQGTQVTVSS
polyreactivity (PSR sort gate): low polyreactivity

QVQLVESGGGVVQAGGSLRVSCAATGSIYYRSAMGWYRQAPGKERELVAAISVSGGSTYYADSVKGRFTISRDNAKITDYLQMNSLKPEDTAVYYCAAVVRYGYEYWGQGTQVTVSS
polyreactivity (PSR sort gate): high polyreactivity

QVQLVESGGGVVQAGGTLRLSCAASGSTFPKYAMGWYRQAPGKERELVAAISLSGVRTYYADSVKGRFTISRDNAKNTVYLQMTSLKPEDTAVYYCNAVFDRYPYRYDYWGQGTQVTVSS
polyreactivity (PSR sort gate): high polyreactivity

QVQLVESGGGVVQPGGSLSLSCAGSGITFWYYDLVWSRQAPGKERELVATITSSGSTYYADSVKGRFTISRDNAKNTVYLQKNSLKPEDTAVYFCAPQYGYSYYSGRYGYWGQGTQVTVSS
polyreactivity (PSR sort gate): high polyreactivity

QVQLVESGGGVVQSGGSLRLSCAASGRTFNHYAMGWYRQAPGKERELVAGITISGGSTYYADSVKGRFTISRDNAKNTVYLQMNSLKPEDTAVYYCNAVYDYYRQSKWTMDYWGQGTQVTVSS
polyreactivity (PSR sort gate): low polyreactivity

QVQLVESGGLIVQAGGSLRLSCAASRSTSRYSMGWYRQAPGKERELDAAITRSCGTTYYADSVKGRFTISRDNAKNSVYLQMNSLKPEDTAVYYCATSDRQVKDDYWGQGTQVTVSS
polyreactivity (PSR sort gate): low polyreactivity

QVQLVESGGRIVQAGGSLRLRCAASGSTFRWYAMGRYRQAPGKERQLVASITWSGGGTYYADSVKGRFTISRDNAKNTVYLQMNSLKPEDTAVYYCNRRTWRYETRGDDYWGQGTQVTVSS
polyreactivity (PSR sort gate): high polyreactivity

QVQLVESGGRIVQAGGSLRLSCAASGRIFWLNAMGRYRQAPGKEREFVASITYGSDSTYYADSVKGRFTISRDTATNTVYFQMNSLKPEDTAVYYCNREGWHYGPYGYWGQGTQVTVSS
polyreactivity (PSR sort gate): low polyreactivity

QVQLVESGGRIVQAGRSLRLTCAASGRTFRNYAMGWYRQAPGKEREFVAAITSRSSRTYYADSVKGRFTISRDNEKNTVYLQMNSLIPEDTAVYYCARGSELGYYAWVYYWGQGTQVTVSS
polyreactivity (PSR sort gate): high polyreactivity

QVQLVESGGRLDQAGGSLRLSCAASGSILSTYAMGWYRQPPVKERELVASISSNAGSTYYADSVKGRFTISLDNAKNTVSLQMNSLKPEDTAVYYCNKVYGGGTYDYWGQGTQVTVSS
polyreactivity (PSR sort gate): low polyreactivity

QVQLVESGGRLFQAGGSLRLSCAASRSIFSTYGKGWYRQPPGKERELVAAITSGVGRTNYADSVKGRFTISRDNAKNTVDLQMNSLKPEDTAVNYCAVRSLGTLDVYDLATEYDYWGQGTQVTVSS
polyreactivity (PSR sort gate): low polyreactivity

QVQLVESGGRLLQAGGSLRLSCAASGIIFVYYDMGWYRQAPGKERELVAVITESGVSTYYADSVKGRFTISRDNAKKTVYLQMNSLKPEDTAVYYCDTSVDRGLGYWGQGTQVTVSS
polyreactivity (PSR sort gate): low polyreactivity

QVQLVESGGRLLQAGGSLRLSCAASGSTISHYAMGWYRQAPGKEWELVATITVTGVRTYYADSVKGRFTISRDNAKNTVYLELNSLKPEDTAVYYCAVRPSTRGAQAQPWMYYWGQGTQVTVSS
polyreactivity (PSR sort gate): low polyreactivity

QVQLVESGGRLVQAGGILRLSCAASGRIFNRYAMGWSRQAPGKEREFVARITGSGGRTYYADSVKGRFTISRDNAKNTVYLQMNSLKPEDTAVYYCARDRGYQSGYDFWGQGSQVTVSS
polyreactivity (PSR sort gate): high polyreactivity

QVQLVESGGRLVQAGGILRLSCPASGSTFKKYAMGWYRQTPGKERELVASINSSAGSTYYADSVKGRFTISRDNAKNTVYLQMNSLKPEDTAVYYCATCQKVYSGRYDYWGQGTQVTVSS
polyreactivity (PSR sort gate): low polyreactivity

QVQLVESGGRLVQAGGSLPLSCAASGFIFRYYAMGWYRQAPGKERELVAAIDYSGGSTNYADSVKGRFTISRDNAKNTVYLQMNSLKPEDTAVYYCNAEYTWHRGYDYWGQGTQVTVSS
polyreactivity (PSR sort gate): low polyreactivity

QVQLVESGGRLVQAGGSLRISCAASGNTFVRYAMGWYRQAPGKQSELVASISTSGGSTYYADSVKGRFTISRDNAKNTVYLQMNSLKPQDTAVYYCAARLPRTRYWEDFWGQGTQVSVSS
polyreactivity (PSR sort gate): high polyreactivity

QVQLVESGGRLVQAGGSLRLICAASGSICTHNAMGWYRQAPGKERELVADITSSVSSTYYADSVKGRFTISRDNSKNTVDLQMNSLKPEDTSVYYCAGGVGRGMYYWGQGTQVTVSS
polyreactivity (PSR sort gate): low polyreactivity

QVQLVESGGRLVQAGGSLRLICAASGSTFYPYAMGWYRQAPGKERELSTDADSVKGRFTISRDNAKNSVYLQMNSLKPEDTAVYYCAALHWRWYDYWGQGTQVTVSS
polyreactivity (PSR sort gate): low polyreactivity

QVQLVESGGRLVQAGGSLRLRCAASGFIFLVNAMGWYRQARGKESELVAAITTSGASTYYADSVKGRFTISRDNAKNTVYLQMNSLKPEDTAVYYCAAGSYARPEYGYWGQGTQVTVSS
polyreactivity (PSR sort gate): low polyreactivity

QVQLVESGGRLVQAGGSLRLSCAASGFIYTPNTMGWYRQAHRKERELVAAITTNGGRTYYADSVKGRFTISRDNAKNTVYFQMNSVKPEDTAVYYCAARYVSSFGLHAQVWSYYYWGLGTQVTVSS
polyreactivity (PSR sort gate): high polyreactivity

QVQLVESGGRLVQAGGSLRLSCAASGFTFARYAMGWYRQAPGKERELVARISSDGGGTDYADSVKGRFTISRDNAKNTVYLQMNSLKPEDTAVYYCYADPYSRFWGPDYGYWGQGTQVTVSS
polyreactivity (PSR sort gate): low polyreactivity

QVQLVESGGRLVQAGGSLRLSCAASGFTFPVYAMGWYRQAPGKERELVAVIRLTGGRTYYADSVKGRFTISRDNAKNTVYLQMNSLKPVDTAVYYCAAGSRSGYGYWGQGTQVTVSS
polyreactivity (PSR sort gate): high polyreactivity
